Results reported in paper doi:10.1101/2025.07.29.667382 (bioRxiv, 2025).
Groups on a side chain read outwards from the residue. No end group written: not given here. Alexa‑547 = not defined here

T1: Snx3 (recombinant, without fluorescent tag) (yeast, UniProt Q08826 1-162)
T1 sequence: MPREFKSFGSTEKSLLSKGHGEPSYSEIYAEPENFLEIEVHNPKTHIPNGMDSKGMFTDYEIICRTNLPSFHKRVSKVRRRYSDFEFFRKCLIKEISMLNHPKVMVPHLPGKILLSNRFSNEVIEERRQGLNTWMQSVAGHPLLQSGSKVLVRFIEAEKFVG

B1: SNX-BAR (Vps5-Vps17) (complex)
chain 1: MDYEDNLEAPVWDELNHEGDKTQSLVSNSIESIGQISTNEERKDNELLETTASFADKIDLDSAPEWKDPGLSVAGNPQLEEHDNSKADDLINSLAPEQDPIADLKNSTTQFIATRESGGALFTGNANSPLVFDDTIYDANTSPNTSKSISGRRSGKPRILFDSARAQRNSKRNHSLKAKRTTASDDTIKTPFTDPLKKAEKENEFVEEPLDDRNERRENNEGKFTASVEKNILEQVDRPLYNLPQTGANISSPAEVEENSEKFGKTKIGSKVPPTEKAVAFKVEVKDPVKVGELTSIHVEYTVISESSLLELKYAQVSRRYRDFRWLYRQLQNNHWGKVIPPPPEKQSVGSFKENFIENRRFQMESMLKKICQDPVLQKDKDFLLFLTSDDFSSESKKRAFLTGSGAINDSNDLSEVRISEIQLLGAEDAAEVLKNGGIDAESHKGFMSISFSSLPKYNEADEFFIEKKQKIDELEDNLKKLSKSLEMVDTSRNTLAASTEEFSSMVETLASLNVSEPNSELLNNFADVHKSIKSSLERSSLQETLTMGVMLDDYIRSLASVKAIFNQRSKLGYFLVVIENDMNKKHSQLGKLGQNIHSEKFREMRKEFQTLERRYNLTKKQWQAVGDKIKDEFQGFSTDKIREFRNGMEISLEAAIESQKECIELWETFYQTNL
chain 2: MTSAVPYDPYDDLDNNPFAEPQEEDSEPAATTTDGSSSMSEERVGTEQTAASVQDNGTANNIQNGLGEEGNATRSKTSNEHNENQQPSQPSERVILPERSDEKKKYTLLAKVTGLERFGSATGKKENPTIIFDCSTNLPTFRKQQYKNVKKSYEEFHQLFKYLNVAIQESFVPTLPSAYTTFGINSEEDRMKVTRNFQLWFNRLSQDPLIIRNEEVAFFIESDFNTYTPINKSKSLASGLKRKTLKQLAPPYDEITELAEFRPLVKSIYVVSQSLQEKLLRVSRNRKMMVQEENAFGQDFVNLDEHNKLYRRYGKILTAVGDIDSIIATMDMATLYDGLEWIVRDAYAVKEALTNRHFIMRNLVQAQQNSKAKQEQARRFRSRRDINPMKIDEALRQLKAAAKNEQVLTLKLQRITSNMIIERKQWISWYEEWIRSSIKEFTLRKIEYERKKLTLLERVRSDIRKADENGGLSRLGRHAVSNNNSDTSQTLKGDSWTGESNRKSQIPINKIAHTEFDDELFTEDDGYNSQDSDTTSLNARHAASLLGMSTK
B2: Ear1^547 (fluorescent Alexa-547-labelled Ear1 peptide) (peptide)
peptide: GGGGGKKIINEEINLDSLGGC([maleimide-Alexa‑547])
modifications: reading uncertain

Assays:
[1] = molecular target: Retromer^mClover (Vps26-Vps29-Vps35, carrying mClover on Vps29) (yeast, UniProt P40335;P38759;P34110); experiment: coat formation on supported membrane tubes, fluorescence microscopy
[2] = molecular target: T1, Snx3 (recombinant, without fluorescent …); experiment: as above

Retromer^mClover (Vps26-Vps29-Vps35, carrying mClover on Vps29), sequence (P40335 whole entry, chain 1 of 3): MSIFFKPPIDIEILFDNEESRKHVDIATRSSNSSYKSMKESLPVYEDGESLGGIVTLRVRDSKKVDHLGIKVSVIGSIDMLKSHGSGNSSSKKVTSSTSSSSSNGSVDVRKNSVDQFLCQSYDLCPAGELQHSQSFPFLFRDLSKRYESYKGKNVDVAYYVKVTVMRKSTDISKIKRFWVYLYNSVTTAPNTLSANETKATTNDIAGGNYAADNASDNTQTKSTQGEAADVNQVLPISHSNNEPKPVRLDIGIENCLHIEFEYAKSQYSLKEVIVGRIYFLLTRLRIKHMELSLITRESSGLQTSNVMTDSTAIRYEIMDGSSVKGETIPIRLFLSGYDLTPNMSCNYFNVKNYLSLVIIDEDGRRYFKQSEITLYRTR
Retromer^mClover (Vps26-Vps29-Vps35, carrying mClover on Vps29), sequence (P38759 whole entry, chain 2 of 3): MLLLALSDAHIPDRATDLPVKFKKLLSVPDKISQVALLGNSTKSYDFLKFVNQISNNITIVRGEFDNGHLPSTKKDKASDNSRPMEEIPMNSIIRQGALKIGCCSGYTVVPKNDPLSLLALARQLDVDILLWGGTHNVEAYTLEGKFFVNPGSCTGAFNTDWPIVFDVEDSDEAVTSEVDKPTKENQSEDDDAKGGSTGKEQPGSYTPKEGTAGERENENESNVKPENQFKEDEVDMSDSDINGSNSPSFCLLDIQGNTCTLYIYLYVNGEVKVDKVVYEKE
Retromer^mClover (Vps26-Vps29-Vps35, carrying mClover on Vps29), sequence (P34110 whole entry, chain 3 of 3): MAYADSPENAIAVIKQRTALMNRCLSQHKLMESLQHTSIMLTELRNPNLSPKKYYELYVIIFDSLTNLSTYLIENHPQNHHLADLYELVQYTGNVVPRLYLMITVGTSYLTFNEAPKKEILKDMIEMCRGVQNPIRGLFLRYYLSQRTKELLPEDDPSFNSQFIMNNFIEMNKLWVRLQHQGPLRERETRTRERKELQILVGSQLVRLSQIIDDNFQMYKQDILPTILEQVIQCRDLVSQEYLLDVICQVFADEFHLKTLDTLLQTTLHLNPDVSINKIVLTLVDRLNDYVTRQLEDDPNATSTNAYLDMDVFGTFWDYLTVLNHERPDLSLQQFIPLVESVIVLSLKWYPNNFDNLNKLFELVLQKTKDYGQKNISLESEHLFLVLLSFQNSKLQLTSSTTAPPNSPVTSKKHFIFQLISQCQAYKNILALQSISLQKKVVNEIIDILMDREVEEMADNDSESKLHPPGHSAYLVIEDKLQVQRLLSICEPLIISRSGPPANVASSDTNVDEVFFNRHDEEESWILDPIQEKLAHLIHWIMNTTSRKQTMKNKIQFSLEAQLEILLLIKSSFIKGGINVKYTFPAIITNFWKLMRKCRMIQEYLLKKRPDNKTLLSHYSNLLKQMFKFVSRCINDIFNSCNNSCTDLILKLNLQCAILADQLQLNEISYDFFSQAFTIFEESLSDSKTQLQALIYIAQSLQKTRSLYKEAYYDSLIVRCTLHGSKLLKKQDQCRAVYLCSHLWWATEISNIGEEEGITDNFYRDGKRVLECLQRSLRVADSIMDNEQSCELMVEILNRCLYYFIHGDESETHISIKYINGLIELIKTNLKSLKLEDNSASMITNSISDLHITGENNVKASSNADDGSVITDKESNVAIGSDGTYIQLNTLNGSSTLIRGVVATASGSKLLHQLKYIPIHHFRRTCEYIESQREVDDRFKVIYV

| Binder | binding result [1] | binding result [2] |
| --- | --- | --- |
| B1 | binds |  |
| B2 | binds | binds |
